We go through 3 molecules from patent US20090318342A1, “Compounds” (IMPERIAL INNOVATIONS LIMITED, priority 2005, published 2009).

One experiment deals with T1, ADAMTS-5 (Homo sapiens, UniProt Q9UNA0).
T1 sequence (Q9UNA0 262-930): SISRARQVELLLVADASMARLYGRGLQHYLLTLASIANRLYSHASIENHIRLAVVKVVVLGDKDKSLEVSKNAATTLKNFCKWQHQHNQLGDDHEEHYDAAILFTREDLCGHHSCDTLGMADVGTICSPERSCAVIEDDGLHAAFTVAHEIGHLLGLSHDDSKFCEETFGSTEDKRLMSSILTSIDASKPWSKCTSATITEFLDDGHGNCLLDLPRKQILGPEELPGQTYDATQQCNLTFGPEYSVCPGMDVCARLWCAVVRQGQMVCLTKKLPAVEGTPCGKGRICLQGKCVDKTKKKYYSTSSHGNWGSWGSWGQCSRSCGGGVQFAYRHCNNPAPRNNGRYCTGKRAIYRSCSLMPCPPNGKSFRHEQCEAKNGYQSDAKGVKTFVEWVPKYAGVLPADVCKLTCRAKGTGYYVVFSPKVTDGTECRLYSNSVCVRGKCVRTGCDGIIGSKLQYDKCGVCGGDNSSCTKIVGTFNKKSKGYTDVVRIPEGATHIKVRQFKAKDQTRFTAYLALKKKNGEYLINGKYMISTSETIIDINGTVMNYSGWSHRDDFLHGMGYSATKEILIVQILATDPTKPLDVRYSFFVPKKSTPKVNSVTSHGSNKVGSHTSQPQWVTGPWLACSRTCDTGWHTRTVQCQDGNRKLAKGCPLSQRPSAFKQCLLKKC
Briefly: Aggrecanase assay with GST-IGD-FLAG substrate, ADAMTS-5. Format: biochemical. As to conditions: for Ki: Table 3, GST-IGD-FLAG substrate, pH 7.5, 37° C., read-out: Ki(app) ADAMTS-5. The procedure: (§1) FIG. 8. Graphs of Ki(app) determination. The GST-IGD-FLAG substrate assay was used to determine the Ki(app) of the N-terminal reactive site mutants against ADAMTS-4 (filled squares) and ADAMTS-5 (open circles).
The substrate containing glutathione S-transferase (GST) fused with the interglobular domain (IGD) of aggrecan (Tyr^331 to Gly^457) attached with a C-terminal FLAG sequence (GST-IGD-FLAG) was prepared by cloning it into pGEX-4T1 at the EcoR1 and Xho1 cloning sites. This substrate was expressed in E. coli strain BL-21 (non-DE3) transfected with the pGEX4T1 GST-IGD-FLAG plasmid by induction with […] isopropyl-beta-D-thiogalactopyranoside (IPTG). After induction, bacteria were collected by centrifugation and resuspended in 20 ml of 50 mM Tris-HCl (pH 8.0), 150 mM NaCl, 0.02% NaN3, […] DTT, […] EDTA with proteinase inhibitor cocktail set II inhibitors (Merck, Nottingham, UK). The resuspended bacteria were then disrupted mechanically using a French Press (5×1500 Psi). After centrifugation at 24,000 g (30 min, 4° C.), the supernatant, containing the expressed GST-IGD-FLAG, was applied to a glutathione-Sepharose 4B column (Qiagen, Crawley, UK). The column was washed with 0.5 M NaCl, 50 mM Tris-HCl (pH 8.0) and eluted with 10 mM reduced glutathione, 50 mM Tris-HCl (pH 8.0). The eluted material was dialysed three times against 10 volumes of 50 mM Tris-HCl (pH 8.0), 150 mM NaCl. […] The concentration of intact substrate (52 kDa) was determined by comparison with Coomassie Brilliant Blue staining of known amounts of bovine serum albumin (GE Healthsciences, Buckinghampshire, UK). […]
(§2) Aggrecanase assays were carried out in 50 mM Tris HCl pH 7.5, 150 mM NaCl, 10 mM CaCl2, 0.02% NaN3, 0.05% Brij-35 at 37° C. […] The stained gels were then scanned using a scanning densitometer (Biorad GS-710, Hemel Hempstead, UK) and the band intensity of the product (17 kDa) quantified using the 1D Phoretix quantification software (Nonlinear Dynamics, Newcastle upon Tyne, UK). Background subtraction was done using the rolling ball method, and band intensity expressed as pixel volumes.

Another experiment addresses T2, ADAMTS-4 (Homo sapiens, UniProt O75173).
T2 sequence (O75173 213-837): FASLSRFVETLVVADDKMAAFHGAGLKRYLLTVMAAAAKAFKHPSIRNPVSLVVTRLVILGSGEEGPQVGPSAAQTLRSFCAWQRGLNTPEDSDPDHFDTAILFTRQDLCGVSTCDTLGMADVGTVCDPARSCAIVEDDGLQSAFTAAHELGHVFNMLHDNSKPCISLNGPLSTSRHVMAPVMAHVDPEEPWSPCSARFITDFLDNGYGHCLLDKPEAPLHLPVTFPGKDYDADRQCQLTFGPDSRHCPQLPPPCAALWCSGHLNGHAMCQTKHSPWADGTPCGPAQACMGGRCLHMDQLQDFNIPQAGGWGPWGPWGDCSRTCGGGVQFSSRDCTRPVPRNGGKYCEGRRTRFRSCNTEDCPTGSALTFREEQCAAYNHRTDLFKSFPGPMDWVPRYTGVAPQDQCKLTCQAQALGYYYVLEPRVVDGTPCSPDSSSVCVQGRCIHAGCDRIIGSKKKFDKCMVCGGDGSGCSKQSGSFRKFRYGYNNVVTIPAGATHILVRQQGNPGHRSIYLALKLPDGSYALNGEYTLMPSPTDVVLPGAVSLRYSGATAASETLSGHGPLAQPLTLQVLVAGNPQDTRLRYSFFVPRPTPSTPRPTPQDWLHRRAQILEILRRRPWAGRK
Briefly: Aggrecanase assay with GST-IGD-FLAG substrate, ADAMTS-4. The format is biochemical. As to conditions: Table 3, pH 7.5, 37° C., read-out: Ki(app) ADAMTS-4. Here is the method: as §1
The substrate containing glutathione S-transferase (GST) fused with the interglobular domain (IGD) of aggrecan (Tyr^331 to Gly^457) attached with a C-terminal FLAG sequence (GST-IGD-FLAG) was prepared by cloning it into pGEX-4T1 at the EcoR1 and Xho1 cloning sites. This substrate was expressed in E. coli strain BL-21 (non-DE3) transfected with the pGEX4T1 GST-IGD-FLAG plasmid by induction with […] isopropyl-beta-D-thiogalactopyranoside (IPTG). […] The concentration of intact substrate (52 kDa) was determined by comparison with Coomassie Brilliant Blue staining of known amounts of bovine serum albumin (GE Healthsciences, Buckinghampshire, UK). […]
as §2

B1: (-2A)N-TIMP-3: N-TIMP-3 mutant with two alanine residues on the N-terminal side of Cysteine1 of the TIMP-3 sequence (protein)
chain: AACTCSPSHPQDAFCNSDIVIRAKVVGKKLVKEGPFGTLVYTIKQMKMYRGFTKMPHVQYIHTEASESLCGLKLEVNKYQYLLTGRVYDGKMYTGLCNFVERWDQLTLSQRKGLNYRYHLGCN
B1: in the experiment with ADAMTS-5 (ADAMTS-5 versus ADAMTS-4), the “Potency for ADAMTS-5 relative to ADAMTS-4” value is given as “about 45 times”.

B2: -1A: N-TIMP-3 mutant with the addition of an N-terminal alanine extension (-1A) (protein)
chain: ACTCSPSHPQDAFCNSDIVIRAKVVGKKLVKEGPFGTLVYTIKQMKMYRGFTKMPHVQYIHTEASESLCGLKLEVNKYQYLLTGRVYDGKMYTGLCNFVERWDQLTLSQRKGLNYRYHLGCN
As for B2, the Ki with ADAMTS-4 amounted to 25 ± 3 nM; with ADAMTS-5 it was 1.9 ± 0.6 nM.

B3: N-TIMP-3: N-terminal inhibitory domain of TIMP-3 (residues 1 to 121), C-terminally His-tagged, wild-type (protein)
chain: CTCSPSHPQDAFCNSDIVIRAKVVGKKLVKEGPFGTLVYTIKQMKMYRGFTKMPHVQYIHTEASESLCGLKLEVNKYQYLLTGRVYDGKMYTGLCNFVERWDQLTLSQRKGLNYRYHLGCN
Regarding B3, the Ki with ADAMTS-4 stood at 2.4 ± 1.6 nM; with ADAMTS-5 it was 0.4 ± 0.2 nM.
